Source: paper PMC9352680, “A comprehensive thermodynamic model for RNA binding by the Saccharomyces cerevisiae Pumilio protein PUF4”

T1: PUF4 RNA-binding domain (Saccharomyces cerevisiae, UniProt P25339 537-888)
T1 sequence: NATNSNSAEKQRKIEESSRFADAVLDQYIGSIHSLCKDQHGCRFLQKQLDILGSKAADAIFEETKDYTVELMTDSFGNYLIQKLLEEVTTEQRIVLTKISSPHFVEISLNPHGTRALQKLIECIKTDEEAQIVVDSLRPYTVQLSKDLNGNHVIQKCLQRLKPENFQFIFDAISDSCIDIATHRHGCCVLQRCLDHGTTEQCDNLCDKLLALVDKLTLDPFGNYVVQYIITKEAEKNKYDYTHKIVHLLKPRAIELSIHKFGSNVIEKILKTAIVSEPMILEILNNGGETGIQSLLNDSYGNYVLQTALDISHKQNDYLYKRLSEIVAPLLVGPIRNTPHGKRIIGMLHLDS

B1: Ic_S2_P4E.1_K4.1_C4.1_H4.1_A4.1_[T5A]_[A6C]_[T7G]_F4.1_T4.1 (ssRNA)
RNA: UUUGAUUAAUAUGAUAUCGUUCUUUCUUGUAACGUAUUCUUUCUCGAUAUCAUAUUAAUCUUU
B2: Ic_S2_P4E.1_K4.1_C4.1_H4.1_A4.1_[T5A]_[A6C]_[T7G]_F4.1_[T8C]_[A9T]_T4.1 (ssRNA)
RNA: UUUGAUUAAUAUGAUAUCGUUCUUUCUUGUAACGCUUUCUUUCUCGAUAUCAUAUUAAUCUUU
B3: Ic_S2_P4E.1_K4.1_C4.1_H4.1_A4.1_[T5C]_[T7A]_F4.1_[T8C]_[A9C]_T4.1 (ssRNA)
RNA: UUUGAUUAAUAUGAUAUCGUUCUUUCUUGUACAACCUUCUUUCUCGAUAUCAUAUUAAUCUUU
B4: Ic_S2_P4E.1_K4.1_C4.1_H4.1_A4.1_[T5C]_[A6T]_F4.1_[T8A]_[A9C]_T4.1 (ssRNA)
RNA: UUUGAUUAAUAUGAUAUCGUUCUUUCUUGUACUUACUUCUUUCUCGAUAUCAUAUUAAUCUUU
B5: Ic_S2_P4E.1_K4.1_C4.1_H4.1_A4.1_[T5A]_[A6C]_[T7A]_F4.1_[A9C]_T4.1 (ssRNA)
RNA: UUUGAUUAAUAUGAUAUCGUUCUUUCUUGUAACAUCUUCUUUCUCGAUAUCAUAUUAAUCUUU
B6: Ic_S2_P4E.1_K4.1_C4.1_H4.1_A4.1_[T5C]_F4.1_[T8C]_[A9G]_T4.1 (ssRNA)
RNA: UUUGAUUAAUAUGAUAUCGUUCUUUCUUGUACAUCGUUCUUUCUCGAUAUCAUAUUAAUCUUU
B7: Ic_S2_P4E.1_K4.1_C4.1_H4.1_A4.1_[T5A]_[A6C]_[T7G]_F4.1_[T8G]_[A9T]_T4.1 (ssRNA)
RNA: UUUGAUUAAUAUGAUAUCGUUCUUUCUUGUAACGGUUUCUUUCUCGAUAUCAUAUUAAUCUUU
B8: Ic_S2_P4E.1_K4.1_C4.1_H4.1_A4.1_[T5C]_[T7C]_F4.1_[A9C]_T4.1 (ssRNA)
RNA: UUUGAUUAAUAUGAUAUCGUUCUUUCUUGUACACUCUUCUUUCUCGAUAUCAUAUUAAUCUUU
B9: Ic_S2_P4E.1_K4.1_C4.1_H4.1_A4.1_[T5C]_[A6T]_F4.1_[T8C]_[A9T]_T4.1 (ssRNA)
RNA: UUUGAUUAAUAUGAUAUCGUUCUUUCUUGUACUUCUUUCUUUCUCGAUAUCAUAUUAAUCUUU
B10: Ic_S2_P4E.1_K4.1_C4.1_H4.1_A4.1_[T5C]_[A6T]_F4.1_[T8C]_[A9C]_T4.1 (ssRNA)
RNA: UUUGAUUAAUAUGAUAUCGUUCUUUCUUGUACUUCCUUCUUUCUCGAUAUCAUAUUAAUCUUU
B11: Ic_S2_P4E.1_K4.1_C4.1_H4.1_A4.1_[T5C]_[T7A]_F4.1_[A9G]_T4.1 (ssRNA)
RNA: UUUGAUUAAUAUGAUAUCGUUCUUUCUUGUACAAUGUUCUUUCUCGAUAUCAUAUUAAUCUUU
B12: Ic_S2_P4E.1_K4.1_C4.1_H4.1_A4.1_[T5C]_[A6T]_F4.1_[T8C]_[A9G]_T4.1 (ssRNA)
RNA: UUUGAUUAAUAUGAUAUCGUUCUUUCUUGUACUUCGUUCUUUCUCGAUAUCAUAUUAAUCUUU
B13: Ic_S2_P4E.1_K4.1_C4.1_H4.1_A4.1_[T5C]_[A6T]_F4.1_[A9T]_T4.1 (ssRNA)
RNA: UUUGAUUAAUAUGAUAUCGUUCUUUCUUGUACUUUUUUCUUUCUCGAUAUCAUAUUAAUCUUU
B14: Ic_S2_P4E.1_K4.1_C4.1_H4.1_A4.1_[T5A]_[A6C]_[T7C]_F4.1_[T8C]_[A9C]_T4.1 (ssRNA)
RNA: UUUGAUUAAUAUGAUAUCGUUCUUUCUUGUAACCCCUUCUUUCUCGAUAUCAUAUUAAUCUUU
B15: Ic_S2_P4E.1_K4.1_C4.1_H4.1_A4.1_[T5C]_[T7G]_F4.1_[A9T]_T4.1 (ssRNA)
RNA: UUUGAUUAAUAUGAUAUCGUUCUUUCUUGUACAGUUUUCUUUCUCGAUAUCAUAUUAAUCUUU
B16: Ic_S2_P4E.1_K4.1_C4.1_H4.1_A4.1_[T5C]_F4.1_[T8C]_[A9C]_T4.1 (ssRNA)
RNA: UUUGAUUAAUAUGAUAUCGUUCUUUCUUGUACAUCCUUCUUUCUCGAUAUCAUAUUAAUCUUU
B17: Ic_S2_P4E.1_K4.1_C4.1_H4.1_A4.1_[T5C]_[A6T]_F4.1_[T8C]_T4.1 (ssRNA)
RNA: UUUGAUUAAUAUGAUAUCGUUCUUUCUUGUACUUCAUUCUUUCUCGAUAUCAUAUUAAUCUUU
B18: Ic_S2_P4E.1_K4.1_C4.1_H4.1_A4.1_[T5A]_[A6C]_[T7C]_F4.1_[T8C]_[A9G]_T4.1 (ssRNA)
RNA: UUUGAUUAAUAUGAUAUCGUUCUUUCUUGUAACCCGUUCUUUCUCGAUAUCAUAUUAAUCUUU
B19: Ic_S2_P4E.1_K4.1_C4.1_H4.1_A4.1_[T5C]_[T7C]_F4.1_[A9G]_T4.1 (ssRNA)
RNA: UUUGAUUAAUAUGAUAUCGUUCUUUCUUGUACACUGUUCUUUCUCGAUAUCAUAUUAAUCUUU
B20: Ib_S1_P3E.1_K3.1_C3.1_H3.1_A3.1_[T5G]_[A6C]_F3.1_T3.1 (ssRNA)
RNA: UCUCUUUGUAGCUAUCUCUU
B21: Ic_S1_P3E.1_K3.1_C3.1_H3.1_A3.1_[T5C]_[A6G]_F3.1_T3.1 (ssRNA)
RNA: UCUCUUUGUACGUAUCUCUU
B22: Ib_S1_P3E.1_K3.1_C3.1_H3.1_A3.1_[T5G]_[A6T]_F3.1_T3.1 (ssRNA)
RNA: UCUCUUUGUAGUUAUCUCUU
B23: Ib_S1_P3E.1_K3.1_C3.1_H3.1_A3.1_[T5C]_[A6C]_F3.1_T3.1 (ssRNA)
RNA: UCUCUUUGUACCUAUCUCUU

Each binder was assayed against T1, PUF4 RNA-binding domain (assay: Mg; RNA-MaP; 20 mM Na-HEPES pH 7.4, 30 mM KOAc, 0.75 mM MgCl2, 0.1% Tween-20, 5% glycerol, 0.1 mg/mL BSA, 2 mM DTT; 25 C; 0.0125-409.6 nM protein). Conditions: tags: N-His6-TEV cleaved; C-SNAP kept, Cy3B-labelled; label: tethered on chip by stalled RNA polymerase.

Compared with B1, B2 is 17-fold higher in Kd: 11 nM for the first, 190 nM for the second.

B3 and B4 are within 1.5-fold of each other in Kd: 87.7 nM for the first, 85.2 nM for the second.

B5 and B6 are within 1.5-fold of each other in Kd: 16 nM for the first, 22.3 nM for the second.

Going from B7 to B8, the Kd falls from 1410 nM to 5.21 nM (270-fold).

Going from B9 to B10, the Kd rises from 24.4 nM to 102 nM (4.2-fold). The first binds more tightly here.

Going from B11 to B12, the Kd rises from 7.25 nM to 110 nM (15-fold).

Going from B13 to B14, the Kd rises from 9.78 nM to 582 nM (60-fold). The first binds more tightly here.

B15 and B16 are within 1.5-fold of each other in Kd: 9.39 nM for the first, 12.3 nM for the second.

Going from B17 to B18, the Kd rises from 53.5 nM to 742 nM (14-fold).

Going from B19 to B20, the Kd rises from 2.73 nM to 819 nM (300-fold). The first binds more tightly here.

Going from B21 to B22, the Kd rises from 149 nM to 1020 nM (6.8-fold).

For B23, the Kd was 86.7 nM.
